According to the DeepSol protein solubility set:

Test: soluble on expression in E. coli; label from the status in PepcDB or PDB records

Row | Sequence | soluble on expression in E. coli
1 | MWIEIICGLVIYKLVRRFFYDDEFSDVETSDSTALFSVAHRLEKLYGGKAYVGLRIPDADTASRQDIDVVLVTKGDVVVISVKNLSGIVTVTSDGSWVCEGGKHHTTETFPDPLAEVKKQASVLESYLEQRGVTLLEGNVSCKVVIPNPSFRTIHAFPSEVITYEDWQQLKPVSKSKISGWVKGAFSTGKEMQESSHQKLNFILGTAPTWDRVELKSSKIVLGEFLEFKGKQEDTLALRNIKRSKVDRVSIQKTSMFGL | not soluble
2 | MSASDGDNTEQTGRRRSFGNLFGSTRVPFSSLSDIYANQSTFAKDQGVQSEVDVADAWSQHHAPTRDQYVQSEIITAVETSSQYEVQTKDKEVEAICSTANRTTQTCHATNIAGTNSESCLIEKLANSLLEHLQARRPIKARTAFPIYLQQPEQLQLLPPPDQQSAPVPPSHPLQNSEARQEDLEQTEMPQASQQIGINETSLNDADSQSFFHSRLHQTEQREETNSNSMQSIHSQVNPPASQETMESHFPEMINSRKSDHQLCFSFKKVTSERCSSFPTRHDGSSHFARSSSGLLGSMSSQQQRSQFPVPQEEGNQAEDMRGAQQPHNARNLFGGVGGMFPSMPNSSGGQGPDWQNNHFIRPFGQPAAGMMSWHPGMMPSHMNNSAAPSSFFESPFMPPYDVFMQQQMLLHSQYAAWEQQRNHAMMYQNAQNQNSANVNPSFADIPSAAPISQPEVNVNENQIVPEETERLEADLEIENTVDAIIVTDVGSVNQAVSGVNSIARETEEINNQDVRNETPVEDFGSIISAISITENRNESPMPSASETDDTSPHTSRSRYGSSVAISTGMKRARLEPSQSPPGSSRKNSRNETTKKNSKTPSSTIDKEPTSSKRTRKAPARYEAEWNAEQGGDTRRAKRWSKDFYKAPSKK | not soluble
3 | GKRSHSMKRNPNAPVTKAGWLFKQASSGVKQWNKRWFVLVDRCLFYYKDEKEESILGSIPLLSFRVAAVQPSDNISRKHTFKAEHAGVRTYFFSAESPEEQEAWIQAMGEAARVQ | soluble
4 | MSLQTSPDMFINRELSWLRFNSRVLDQCSKNLPLLEKLKFIAIYCTNLDEFYMIRVAGLKQLFSAGVNASSSDEMTPLQQLKAIRKYLHQEKELLERYFNEITSELEKENLFIKHYENLDENLKQKCDEYFFSNIFPVIVPIAVDATHPFPHLNNLSFSLAVKICDKAHPELVKFGMIRIPRVLPRFYEVSANIYVPIESIVHQHAEEIFPGYKLLASAAFRVTRNADMVIEEEEADDFMMILEQGLKLRRKGAFVRLQIQKDADEQIVEFLNTHMKIFHKDVYEYSILLNLPSLWQIAGNKTFTHLLSPLYTPKTLPPFDENLSIFDAVEKEDILIIQPFESFDPVYKFIKEASKDPEVISIRMTLYRVEKNSNIVQALIDAASDGKQVTVMVELKARFDEENNLHWAKALENAGAHVIYGITGFKVHAKVSQVIRKQGDKLKFYMHLSTGNYNASSAKIYTDVSYFTSKAEFARDTTSFFHILSGFSKNRRLQTLSMSPNQIKEKVLEMIRIETSKKNEGVIVAKMNSLVDSDIIQALYEASMEGVQIDLIIRGICCLKPDEEYSKNIRVRSIIGKYLEHARVFYFKHSEPNYFISSADWMPRNLERRLELMTPIYDERSKAKLAQFLRLQLSDNVLAYELKNNGEYEKIPSSEKIIDSQQTLEEYVSKIYKTLKKDTDQSRATHLASKLFKENEGHHHHHH | soluble
5 | MAHHHHHHMSQEEILQQTTGPSVPGKGVIVDDGTMEDIIDKLRILRYEKDFCPRVKPPFKPLSKYYFSGPSSIDNPNAQFHYFTSLCSWLMGLAGHNFEPPGQFDDPNATSTNILGELRAMNISAPNLAPNRIRQGNGEAVLTILSVLSDHALLKKGFTVRSVDYTNVEKYDELDGVTDADDDNGIGEEVEDNVMIESDDEEELYVRATGERLVKEDAGVPLESEINAEEWNLEVERVGPLLQVRSDALQDWRSRIESAGVLLRAVEKMYPEVKADASTCGG | not soluble
6 | GPGSMNRDPDNGLWYATLRGRTLLGEEVQLPESGIVGMTTVTTSKPSCSPFPTPASLSTFPPQIAEVGELEMVDEVFIEACAPRYVVWDHGRAPSPAASLLQWMMLAEVLHGPSKWAQGEGDTSL | not soluble
7 | MGSDKIHHHHHHMASHNTTHQMKTLCSSCSLRELCLPVGLLPNELSQLDAVIRQSRRLKKGEYLFCVGEAFTSLFAIRSGFFKTTVASQDGRDQVTGFFMSGELIGMDGICSHVHSCDAVALEDSEVCELPFTHIEELGQNIPSLRTHFFRMMSREIVRDQGVMLLLGNMRAEERIAAFLLNLSQRLYSRGFAANDFILRMSREEIGSYLGLKLETVSRTLSKFHQEGLISVEHKHIKILNLQVLKKMVSGCSHAI | not soluble
8 | MGTSSFTFPGFYRAKNMRSPECLDLLDSMNHFILHCHWEHADLNRTSLTERKRLGSKYEYENWFEEKRENSGTKFIKRSSSSKEIHYNCALVTNGDNRQFKKSKKLDQYCASGKVQFHDSGSVDVLGCCSHAGHDT | not soluble
9 | MAHHHHHHMVFHLNIFNKGKRQNLVSAYLNHFKKSYFSGVTSGSDCVNKSEVSSDNNNNNNNNNNKIAHNFFSKKYQRNFENNNLSENQENNKNIIYSGSNIFKNIYNTEMMSNNNTVDVNMMDNNPAARLEELRTIMKKNKIDVYILINSDEHNSEIINEKDKKIVKITNYSGADGILIVTKDKPILYVNALYELQAMNELDQNLFTLRISRIDNRDEIFETISSLEFNTIAFDGKNTSVVFYEKLRKALLNAYPKKKIVEKIIYNNNFDDVNKKDDENVLNFLVLEKSLVEIKDYPVNNKTLYIHDRKYNGACAGEKIDKLKQSLMYDIKNVDNLLLSELDEIAYLLNLRGYDYQYSPLFYSYLLFQFDREEQDFSKIVFFTTVKNLPADVKNLLEINKVIVKEYEEIVPYLRDVVIPSIPKHNDDNPDFKKYDISLSPYINLMIYKLFDRKNVLLQNSPVVKMKAVKNDVEIDNMKQAHILDGLALLQFFHWCEQKRKTKELFNETEMSLRHKVDYFRSTKKNFIFPSFSTISASGPNAAVIHYECTDKTNATIKPAIYLLDSGGQYLHGTTDVTRTTHFGEPTAEEKRIYTLVLKGHLRLRKVIFASYTNSSALDFIARENLFNNFMDYNHGTGHGVGLTLNVHEGGCSIGPVGGAPLKKNMVLSNEPGYYMKDKFGVRIENMQYVISKEITDTTEYLSFDDLTMYPYEK | not soluble
10 | MEERELVEYFRGQIREDPDVASAVAAIRSLLEFLKRDQSETILGLRENMTQAIHRLQEADPSVAVSSGGELFLRFISLTSLEHPDLSQCKNVMIERGELFLKKISLSRGKVGKLCHTFIKDGAKILTHSSSRVVLKVLENAAADNKRFTVKLMAEKLRKLSIPVTVVLDAAVGYILEKVDLVIVGAEGVVESGGVINKIGTYQMAVCSKAHNKPFYVVAESFKFVRLYPLNQQDVPDRFKYKADVLKTAEDLNQEHPLIDYTPSSLITLLFTDLGVLTPSAVSDELIKLYL | soluble
11 | MSLKLIATDMDGTLLRSNGEFPNEFPLILDSLLNKNIMFSVASGRQYFTLKDNMAGFEDKITFIAENGAFIVKDGKELFAKTLDRDMLSKVVDDAKKVPDCKLVLCGKKSAYVLDKSSAFIEEVEKYYHKSAVVNSLDEIDDEFFKIAICDYKGSANNSNVLLSPKWGKLFQLTVSGDIWLDIGRNDVNKGTAIKFLQDKFNINENETMAFGDYYNDVSMLQSVYHSYVMENAPDGVKKHGRFIAKSNDESGVIQVIKNKVLELGAEGHHHHHH | soluble
12 | EIEEIKITMDVLVASEDVMVTVTKEGYVKRTSLRSYAASNGELPGMKEGDYLLGRYEMNTQDTLLLFTKKGNYLYLPVHQLPDIRWKDNGQHVANLVTVDKDDDILTTLAVKEFSEE | soluble
13 | AATTGYDAVDDLLHYHERGNGIQINGKDSFSNEQAGLFITRENQTWNGYKVFGQPVKLTFSFPDYKFSSTNVAGDTGLSKFSAEQQQQAKLSLQSWADVANITFTEVAAGQKANITFGNYSQDRPGHYDYGTQAYAFLPNTIWQGQDLGGQTWYNVNQSNVKHPATEDYGRQTFTHEIGHALGLSHPGDYNAGEGNPTYNDVTYAEDTRQFSLMSYWSETNTGGDNGGHYAAAPLLDDIAAIQHLYGANLSTRTGDTVYGFNSNTGRDFLSTTSNSQKVIFAAWDAGGNDTFDFSGYTANQRINLNEKSFSDVGGLKGNVSIAAGVTIENAIGGSGNDVIVGNAANNVLKGGAGNDVLFGGGGADELWGGAGKDIFVFSAASDSAPGASDWIRDFQKGIDKIDLSFFNKEANSSDFIHFVDHFSGTAGEALLSYNASSNVTDLSVNIGGHQAPDFLVKIVGQVDVATDFIV | soluble
14 | MAHHHHHHMARTLLLNIQHHQPDLGLSEVDIELGMLAGLLHDVGHGPFSHLFEDVVSRRCGIEFNHEDMSEKIARRVLRDLVPQTHVDVVVGLMRGKALLGITYGEIISNKRNGIDVDRLDYFIRDSMCCFGKPTVDVRVNRLFNSARIVCEEGQWQLGFEQKLALSLREIFTLRAKLHKNVYQHQVTKAIGHMIGDVIHAAAPHFRVGGHTLVECAQDETLFLKLGDWILEAIEASEAPHLAEAHAILHRLRTRDIYRVAYSSALDITMRAPMAAVDWPAAILEHAHPSFPLNADDFIAEVVVINQGKGTEDPLESVLFFNPKKPSQPLTRLKPAEDLKHGSPLFTPLQFEERTLMVFERRPTNGAVQRACERLNADPKYAAFFTDSLPFYNTK | soluble
15 | MSLIIIISGPPGSGKTSVAIKLANELSYKFISAGKIFRDIAQSMGLDIINLNRVAESNFDIDKMVDKKIHEYVLRERNLIVESHIAGWIFREYTDVAIYLWAPLKIRANRIAIRDKISYVEAVSQIIRREYMHYKRFNKFYGIDINDLSVFDLVINTSNIDINNIVKLILDYLSSVSHNEGHHHHHH | soluble
16 | MAHHHHHHMEHQYFFIEATWLEAAAAGICSRNGIILKDAIAKAEKGIPVQIKNDSAPTMRSLIQTTHASLEQACERYLHQNARNLRLTRASKPTPAVEALNEAERASCRELVVRIAITGALTQYQRCTRKCILQDSSSLSPSLSHPAVSASKTVQGNGVTDKQLERSFQTTLLKGLLYAFESFQECHSMNRDHYPPRVDSNTPGTVGWDTLVLLYLVHRIPQVARHASGSAIDDCIGQVIRTWRKLLVALQSVDAQEAPEHSRRRGALSLVNGLLIILFQRYNTHQCAVLLGAVEHAETVAESSKEPARSILHPSRHMVSEVVTYHYYQGRMRLYERKLDEAHRILRIAYTLLPPAGFGNEPQRLNKERVRFFLSVAGVANGRRIPDEILRADEDLLPRLFGSLTAAIERGDPVCFSAALDSHASTFHRRGVYLILQQAKILCYLMVVARVHAAMAALSDVDNSRITIPTLLAAYTYITSEKPQSGKSSAESKKRSRDDEAVSPVSEARMAESVMDEDRMALWIAKLIARGYVRGYYSHEHKTLVLSKKVPFPLLQEEV | not soluble
17 | MKEFIISEARTEPTVLVGLITPQQSETQVREYLDELAFLCETAGAQPIARFTQKLDQPNSVTFVGKGKLDEIRAYVQENEIGMVVFDDELSPKQLRNIEKELQTKILDRTGLILDIFARRAQTAHAKTQVELAQYQYMLPRLTGLWTHLERQRGGVGMRGPGEKQLETDRRIVLDKIARLKEELRDIDKQKSVQRKNRGKMVRVALVGYTNVGKSTLMNVLSKSEVFAENKLFATLDTTVRKVIIDNLPFLLSDTVGFIRKLPTQLVESFKSTLDEVREADLLVHVVDMSHPAFEEQIEVVNQTLAEITAGEEKPMLLLFNKIDAFSFTPKDEDDLTPRTKENISAEELQQTWMAKLGNDCLFVSAKKGTGMDALKALLYERAKAIHITRFPYNDFLFQDYSEEME | not soluble
